Measurements published in the DeepSol protein solubility set.

Assay: soluble on expression in E. coli; label from the status in PepcDB or PDB records

Sequence | soluble on expression in E. coli
GQGVYTYEDGGVLQGTYVDGELNGPAQEYDTDGRLIFKGQYKDNIRHGVCWIYYPDGGSLVGEVNEDGEMTGEKIAYVYPDERTALYGKFIDGEMIEGKLATLMSTEEGRPHFELMPGNSVYHFDKSTSSCISTNALLPDPYESERVYVAESLISSAGEGLFSKVAVGPNTVMSFYNGVRITHQEVDSRDWALNGNTLSLDEETVIDVPEPYNHVSKYCASLGHKANHSFTPNCIYDMFVHPRFGPIKCIRTLRAVEADEELTVAYGYDHSPPGKSGPEAPEWYQVELKAFQATQQK | soluble
VAYWLVKSEPSVWSWDQQVAKGAAGEAWTGVRNHSAKLHMVAMRRGDRAFYYHSNEGKEIVGIAEIIREAYPDPTDASGKFVCVDIKADKPLKTPVTLAAVKAEPRLADMALMKYSRLSVQPVTAEEWKLVCKMGGLLEHHHHHH | soluble
SRDSAFRERLLRLAPKYPLVLAVSGGGDSVALALLVKEAGRQAVVAHLDHGLRPESPLDQAFVRALAERLGFPFFTERVEVARIAQARGENLEAVAREVRYAFLHRVAREVGARAILTAHTLDDQAETVLLQLLQGTARATGIREREGIVVRPLLAHTREELRAYLRARGEAWREDPTNQDPALDRNFLRLFVFPLLEERFPAAKRALARFAEARAEEEGVLERQAEARLLPDPRFFVPAFRAAPLLEAPLAVRRRALRRLLEKLGLRPEARLVLLLEEALRGRPQTLPGGVLARRKGGTLFLLPPRPRLPLPPGFRRPAPGDYLERPSGRKRLVDFLAEKGVPRELKPLWPVRAEGNRVVEVLGLYPPPPEEAHMAEALAEAASAFREGEVPVGAVLVLPGRVLRAHNRVEGLRDPTAHAEMLLLREAGPEARGGRLYVTLEPCLMCHHALAQAGVEVVYGAENLKEGALTRFGLPTRARGGVRERECAKLLRDFFARLREGCRSG | soluble
MITLWGRNNSTNVKKVLWTLEELELPYDQILAGGKFGVNQDADYLAMNPNGLVPLLKDDETDLLLWESNAIVRYLAAQYGQNRLWVDNPARRAEGEKWMDWANQTLSPAHRVILMGLVRTPPEKRDQAAIEAGIEKCDSLFALLDDALAHQPWFSGDNFGTGDIAIAPFVYNLLNVGLKWTPRPNLERWYQQLTERPAFRKVVMIPVT | not soluble
SGRPIEDVRDRQRLADATATVHETRLALHHGRGNIESDFRLSNGRSSTCSYLSYSFLSYWPGKHDINLMAGCALAVSAGNCDQNAAINTRRHAARMEGGGQITNVCDQACAHMYALYQPPGSAEAQDSAVVLDSWSDGPAVLLRDSRWAGTYHRTSTYPIERFDKPGAIDALARTRALQAEIEDPQTEFHAHLRGVESVVRTPPVPRKIYASTP | not soluble
MEQRLLAVFDFDGTITRHDSFVPFLKFAFGQRVFSVRMARLVLPSLGYLTKRLSRDELKGRLIKAFLSGVEVQWLQQKAEAFCHSHWKRLMRPAALESIAAEIEKGAIVTLCSASPAMVLQPFADRLKVELIGTNLEVIDGKLTGLIEGSNCRCDSKVARLESVYGPLTQFRVRAWGDTRGDHELLAAAQDAHWRLFHPTWRRGRYKGPVNAKLHNPDGKDGPTR | not soluble
MPVINVKDDEDFRNQLSLAGLKSVIVDFTAVWCGPCKMIAPTFEALSNQYLGAVFLKVDVEICEKTSSENGVNSMPTFMVFQSGVRVEQMKGADAKALETMVKKYADNSAADSLVAGQMDLTPLVDKKQMECLNESDDTPLGRFLEGNCNLVSDCDEQLIISLPFNQPVKVHSILIKGVSDRAPKKVKVFINLPKTTDFDNATALEPTQMLEFDESSIQGHGQVVALKYVKFQNVQNIQFFIENNVGGGDVTELVKLTVFGTPLSALNMNEFKRVAGKAGDAAH | not soluble
SIGLFKVKEKQREQAQNATRGGASVKKQSAGELRLHKDISELNLPSSCSISFPNGKDDLMNFEVSIKPDDGYYHNGTFVSHSKSLLCIHMKLQKLNAKPRFIIPISIWKETFA | soluble
MEKGSVMSLFIYMSQSMFNFDALTPDFMWYALESIGIRAESGFLPLNSYENRVYQFTDEERRRYVVKFYRPERWSNEQIQEEHDFTLELIDSEIPVAPPVRINGNTLHHYQGYGFALFESVGGRQFEVDNLEQLEGVGRFLGRIHKVGSRQAFQHRPTIGLQEYLYQPREILQNANMIPMHLENSFFNDLDMLIKAIENHWQGSFATIRLHGDCHPGNILWRDGPMFVDLDDSRNGPAVQDLWMLLNGERQDKLMQLDIILEAYQEFCDFNAAELKLIEPLRGLRMVHYMAWLAKRWHDPAFPLAFPWFNEPKYWEGQVLAFKEQIASLEEAPLSLMPQWLEHHHHHH | not soluble
MTKTKFEKVLLIVNPKAGQGDLHTNLTKIVPPLAAAFPDLHILHTKEQGDATKYCQEFASKVDLIIVFGGDGTVFECTNGLAPLEIRPTLAIIPGGTCNDFSRTLGVPQNIAEAAKLITKEHVKPVDVAKANGQHFLNFWGIGLVSEVSNNIDAEEKAKLGKIGYYLSTIRTVKNAETFPVKITYDGQVYEDEAVLVMVGNGEYLGGIPSFIPNVKCDDGTLDIFVVKSTGIQAFKDYIGKKLFEDSNENDIFHVKAKSIHIETEEEKEVDTDGESSLHTPCQIELLQGHFTMIYNPAVV | soluble
MVIRVFIASSSGFVAIKKKQQDVVRFLEANKIEFEEVDITMSEEQRQWMYKNVPPEKKPTQGNPLPPQIFNGDRYCGDYDSFFESKESNTVFSFLGLK | soluble
MAKLDETLTMLKALTDAKGVPGNEREARDVMKTYIAPYADEVTTDGLGSLIAKKEGKSGGPKVMIAGHLDEVGFMVTQIDDKGFIRFQTLGGWWSQVMLAQRVTIVTKKGDITGVIGSKPPHILPSEARKKPVEIKDMFIDIGATSREEAMEWGVRPGDMIVPYFEFTVLNNEKMLLAKAWDNRIGCAVAIDVLKQLKGVDHPNTVYGVGTVQEEVGLRGARTAAQFIQPDIAFAVDVGIAGDTPGVSEKEAMGKLGAGPHIVLYDATMVSHRGLREFVIEVAEELNIPHHFDAMPGVGTDAGAIHLTGIGVPSLTIAIPTRYIHSHAAILHRDDYENTVKLLVEVIKRLDADKVKQLTFDE | not soluble
DPQSVETALNVAREGLVLLKNENNILPINPQKYKHIIVTGKNAHGYVHGGGSGAVVPFHYTNLFDGIQKEGKLNNVKVEYIDELDFMPSIMYTDDNLNEKGFHAEYFKNIHFEGAPVVKQTEKKINYSWAAGTELEGMPKDYFSVKWYSTMCVDETADYEFTLGGDDGYKLFINDQPIIDDWTPGGFRTTNVTKTLKAGEKYHVRVEYYQQGGGAGICFLWKRKNETQNKFADYLNKADLVIACFGHSSDTEGEASDRTFELPEVDKKMLASLSGCKKPVIGIVNAGGNIEMQKWEPSLKGLIWGFYGGQEAGTAIGEALFGKVNPSGKLPMTFEKKWEDSPAYNSYHDPDKDKHVAYTEGIFIGYRGYDKLKREVQYPFGYGLSYTTF | not soluble
TKAVTFYEDINYGGASVSLQPGNYTLSQLNTAKIPNDWMTSLKVPSGWTVDVYENDNFTGTKWTYTSDTPWVGNDANDKMTSVKIYST | soluble
MSQTLKQLAMAKMAGFRHKTVVVPEWEGVKVVLREPSGEAWLRWQEVVKGGGDDENVSVSEKAHRNLCADVVLFIDVLCDTDKQPVFSVDEEEQVREIYGPVHSRLLKQALDLINNADEAREKSQPPA | not soluble
MSPAQIIRTSHSFPPSFTGTSSSAENSHAQSPQQVLTRAFVASGELNAAFGRTSTASAQDFTSLLGTLQRELEKKTPAFPDLAELANQLADAAMGDQGGHWLGRDEQQTLKGMIDRCKSQLAHTPASDASYDLLAQVCENLKKARLHQSISQMTGEAHAKVRGVPDLLALIQLDPDILAEKPVGMPSYVKFSSFICMAKARTAELSENLRNASNEVALLLHPHADTILEQGSLRLQIVGF | not soluble
SSLLDGLASSPRAPLQSSKARMKKLPKKSQNEKYRLKYLRLRKAAKATVFENAAICDEIARLEEKFLKAKEERRYLLKKLLQLQALTEGEVQAAAPSHSSSLPLTYGVASSVGTIQGAGPISGPSTGAEEPFGKKTKKEKKEKGKENNKLEVLKKTCKKKKMAGGARKLVQPIALDPSGRPVFPIGLGGLTVYSLGEIITDRPGFHDESAIYPVGYCSTRIYASMKCPDQKCLYTCQIKDGGVQPQFEIVPEDDPQNAIVSSSADACHAELLRTISTTMGKLMPNLLPAGADFFGFSHPAIHNLIQSCPGARKCINYQWVKFDVCKPGDGQLPEGLPENDAAMSFEAFQRQIFDEDQNDPLLPGSLDLPELQPAAFVSSYQPMYLTHEPLVDTHLQHLKSPSQGSPIQSSD | soluble
MNRNKWQRVPAPNTRGAKMHGWVREMDEAYREVNGEYAVLVRTLNTKLGTVKHAAIRNATETDITWSEKQRIKNEIFGEEKQAIEFFPKQSELIDEANMYHLWILEDCELEFGIYE | not soluble
MEFYDARKWCHYQSPVPSYLAYVPDLSTSNFLATYARAAFETNRFWIGLSRFDYFDPYLWDNGRPVTYTNFGTGTGNFVAEHTLNGKWYLYGNGAKNVFVCSYDPAAPPTFPPPFILTTRQSTITSANSCQPGGPISFLFAYSNDLDPQVVKDSWDLSNIDDYSGYSVYAIAKFDVLEEEDIVYFLDKKLATTYVHSHLSNSSLGFNGTTTGSDSLRIIEVGNVEGIESSQFLNFQKFFNNKDVTVCGSVCLILEKRYPNDEDISKTVSLVRYYHGIVYAVSSINPSGGTQSKAIYNLTSRTNGIFCSTDPSGGNQSKTIYNLTSKTNGLCNFAKDKDIAGLVTSVPMFYPPYPIYCANVLVSGQNITELPSMYVPQSIMYYTVFASVEDHGPLDNFQSFDFSWFNSDEPRYIQHLQSNSTVMDGVTSSGVYYIAPEIYTMKVQYNYTNKMEQAMQVRVYTYDGENSADWIPYCD | not soluble
SSEVLDGFDKVDKSLASSIDGSDKRNNLVLSELNTAYRTNPEKVKVWYERSLVLQKEADSLCTFIDDLKLAIARESDGKDAKVNDIRRKDNLDASSVIMLNPINGKGSTLRKEVDKFRELVATLMTDKAKLKLIEQALNTESGTKGKSWESSLFENMPTVAAITLLTKLQSDVRYAQGEVLADLVKSVDVGDYRVNSITAQVIPQSQIVMSGDTYKANIVLSSVDTTQRPDVFVNGKLLSPENMGLFTATAGAPGTYPVKGYIEMMGNDGVKIRRDFESEYFVTE | not soluble
MNSIHGHYHIQLSNYSAGENLQSATLTEGVIGAHRVKVETALSHSNLQKKLSATIKHNQSGRSMLDRKLTSDGKANQRSSFTFSMIMYRMIHFVLSTRVPAVRESVANYGGNINFKFAQTKGAFLHKIIKHSDTASGVCEALCAHWIRSHAQGQSLFDQLYVGGRKGKFQIDTLYSIKQLQIDGCKADVDQDEVTLDWFKKNGISERMIERHCLLRPVDVTGTTESEGLDQLLNAILDTHGIGYGYKKIHLSGQMSAHAIAAYVNEKSGVTFFDPNFGEFHFSDKEKFRKWFTNSFWGNSMYHYPLGVGQRFRVLTFDSKEV | not soluble
GSRNPNKLDINTLTGEERVPVVNKRNGKKMGGAMAPPMKDLPRWLEENPEFAVAPDWTDIVKQSGFVPESMFDRLLTGPVVRGEGAS | soluble
MVLPGNCSTSAALCMQFLTQLASVAIDQAYQPPQQPAYNPHEKLFVSYRSVPPPGSSPSSAAVPIRFSSYSSVGSNIRGLNSPTLHPGSIEPPLTPGNYRLYSMRFCPYAQRVLIYLAKKNIPVEVVNVNPDRSPNWYLPKSPIGRVPALEINGKVVWESNVIVEYLDELFPTNTILPRDAYEKAHQKILVERLSPIMNALFEFYGSSNNPQAQRQNDMNVHSALRNSENLLRDTFYGGRQPGYADYLMWPFLERLQLLTMSPNSQFRYFPGLHYPKIGAYIARMQNQPEVLGFCKHDFFLKKTGEKIW | not soluble
MVHYKLSYFPIRGAGEVIRQIFVYAGQSFEDHRISIEEWAAVKPTTPFGQLPLLEVDGKVLPQSHSIARFLARQFGINGKCAWEEAQVNSIADQFKDYRNEVRPYVMVKMGFAEGDLDALSKDVFLPGFKKHYGFIYNFLKTAGSGYLVGDSLTFVDLLIAQHTADILSTDPALLEEFPQFKAHQEKVHSNANIKKWLETRPETQF | not soluble
